From the supplement of paper PMC5998384

What was measured:
HeLa Kyoto [1] = assay: melting temperature (median over replicates), in situ; higher = more thermally stable
HeLa Kyoto [2] = assay: solubility change mitosis vs G1/S (difference of NP-40 vs SDS log2 ratios) (log2 ratio difference); higher = more soluble in mitosis
HeLa Kyoto [3] = assay: solubility in G1/S (NP-40 vs SDS abundance) (log2 ratio); higher = more soluble; conditions: cell cycle stage: G1/S
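For melting temperature (median over replicates), in situ in this document: HeLa Kyoto cells synchronized by double thymidine or nocodazole block, proteins quantified by TMT10plex mass spectrometry, three independent biological replicates.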
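For solubility change mitosis vs G1/S (difference of NP-40 vs SDS log2 ratios) in this document: synchronized HeLa Kyoto cells (double thymidine block for G1/S, nocodazole release for mitosis), protein amounts in NP-40 versus SDS lysates quantified by mass spectrometry, three biological replicates.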
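For solubility in G1/S (NP-40 vs SDS abundance) in this document: HeLa Kyoto cells arrested at G1/S by double thymidine block, proteins quantified by TMT10plex mass spectrometry in mild NP-40 versus SDS extracts, three biological replicates.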

Row | Sequence | melting temperature (HeLa Kyoto [1]; cell cycle stage: G1/S) [°C] | melting temperature (HeLa Kyoto [1]; cell cycle stage: mitosis) [°C] | solubility change mitosis (log2) (HeLa Kyoto [2]) | solubility in G1/S (log2) (HeLa Kyoto [3])
1 | MKTRQNKDSMSMRSGRKKEAPGPREELRSRGRASPGGVSTSSSDGKAEKSRQTAKKARVEEASTPKVNKQGRSEEISESESEETNAPKKTKTEQELPRPQSPSDLDSLDGRSLNDDGSSDPRDIDQDNRSTSPSIYSPGSVENDSDSSSGLSQGPARPYHPPPLFPPSPQPPDSTPRQPEASFEPHPSVTPTGYHAPMEPPTSRMFQAPPGAPPPHPQLYPGGTGGVLSGPPMGPKGGGAASSVGGPNGGKQHPPPTTPISVSSSGASGAPPTKPPTTPVGGGNLPSAPPPANFPHVTPNLPPPPALRPLNNASASPPGLGAQPLPGHLPSPHAMGQGMGGLPPGPEKGPTLAPSPHSLPPASSSAPAPPMRFPYSSSSSSSAAASSSSSSSSSSASPFPASQALPSYPHSFPPPTSLSVSNQPPKYTQPSLPSQAVWSQGPPPPPPYGRLLANSNAHPGPFPPSTGAQSTAHPPVSTHHHHHQQQQQQQQQQQQQQQQQQQHHGNSGPPPPGAFPHPLEGGSSHHAHPYAMSPSLGSLRPYPPGPAHLPPPHSQVSYSQAGPNGPPVSSSSNSSSSTSQGSYPCSHPSPSQGPQGAPYPFPPVPTVTTSSATLSTVIATVASSPAGYKTASPPGPPPYGKRAPSPGAYKTATPPGYKPGSPPSFRTGTPPGYRGTSPPAGPGTFKPGSPTVGPGPLPPAGPSGLPSLPPPPAAPASGPPLSATQIKQEPAEEYETPESPVPPARSPSPPPKVVDVPSHASQSARFNKHLDRGFNSCARSDLYFVPLEGSKLAKKRADLVEKVRREAEQRAREEKEREREREREKEREREKERELERSVKLAQEGRAPVECPSLGPVPHRPPFEPGSAVATVPPYLGPDTPALRTLSEYARPHVMSPGNRNHPFYVPLGAVDPGLLGYNVPALYSSDPAAREREREARERDLRDRLKPGFEVKPSELEPLHGVPGPGLDPFPRHGGLALQPGPPGLHPFPFHPSLGPLERERLALAAGPALRPDMSYAERLAAERQHAERVAALGNDPLARLQMLNVTPHHHQHSHIHSHLHLHQQDAIHAASASVHPLIDPLASGSHLTRIPYPAGTLPNPLLPHPLHENEVLRHQLFAAPYRDLPASLSAPMSAAHQLQAMHAQSAELQRLALEQQQWLHAHHPLHSVPLPAQEDYYSHLKKESDKPL [ATN1] | 53.9 | 57 | 0.405 | 0.377
2 | MLAYCVQDATVVDVEKRRNPSKHYVYIINVTWSDSTSQTIYRRYSKFFDLQMQLLDKFPIEGGQKDPKQRIIPFLPGKILFRRSHIRDVAVKRLKPIDEYCRALVRLPPHISQCDEVFRFFEARPEDVNPPKEDYGSSKRKSVWLSSWAESPKKDVTGADATAEPMILEQYVVVSNYKKQENSELSLQAGEVVDVIEKNESGWWFVSTSEEQGWVPATYLEAQNGTRDDSDINTSKTGEVSKRRKAHLRRLDRRWTLGGMVNRQHSREEKYVTVQPYTSQSKDEIGFEKGVTVEVIRKNLEGWWYIRYLGKEGWAPASYLKKAKDDLPTRKKNLAGPVEIIGNIMEISNLLNKKASGDKETPPAEGEGHEAPIAKKEISLPILCNASNGSAVGVPDRTVSRLAQGSPAVARIAPQRAQISSPNLRTRPPPRRESSLGFQLPKPPEPPSVEVEYYTIAEFQSCISDGISFRGGQKAEVIDKNSGGWWYVQIGEKEGWAPASYIDKRKKPNLSRRTSTLTRPKVPPPAPPSKPKEAEEGPTGASESQDSPRKLKYEEPEYDIPAFGFDSEPELSEEPVEDRASGERRPAQPHRPSPASSLQRARFKVGESSEDVALEEETIYENEGFRPYAEDTLSARGSSGDSDSPGSSSLSLTRKNSPKSGSPKSSSLLKLKAEKNAQAEMGKNHSSASFSSSITINTTCCSSSSSSSSSLSKTSGDLKPRSASDAGIRGTPKVRAKKDADANAGLTSCPRAKPSVRPKPFLNRAESQSQEKMDISTLRRQLRPTGQLRGGLKGSKSEDSELPPQTASEAPSEGSRRSSSDLITLPATTPPCPTKKEWEGPATSYMTCSAYQKVQDSEISFPAGVEVQVLEKQESGWWYVRFGELEGWAPSHYLVLDENEQPDPSGKELDTVPAKGRQNEGKSDSLEKIERRVQALNTVNQSKKATPPIPSKPPGGFGKTSGTPAVKMRNGVRQVAVRPQSVFVSPPPKDNNLSCALRRNESLTATDGLRGVRRNSSFSTARSAAAEAKGRLAERAASQGSDSPLLPAQRNSIPVSPVRPKPIEKSQFIHNNLKDVYVSIADYEGDEETAGFQEGVSMEVLERNPNGWWYCQILDGVKPFKGWVPSNYLEKKN [SH3PXD2A] | 49.5 | 49 | 0.1 | 0.0755
3 | MLDHKDLEAEIHPLKNEERKSQENLGNPSKNEDNVKSAPPQSRLSRCRAAAFFLSLFLCLFVVFVVSFVIPCPDRPASQRMWRIDYSAAVIYDFLAVDDINGDRIQDVLFLYKNTNSSNNFSRSCVDEGFSSPCTFAAAVSGANGSTLWERPVAQDVALVECAVPQPRGSEAPSACILVGRPSSFIAVNLFTGETLWNHSSSFSGNASILSPLLQVPDVDGDGAPDLLVLTQEREEVSGHLYSGSTGHQIGLRGSLGVDGESGFLLHVTRTGAHYILFPCASSLCGCSVKGLYEKVTGSGGPFKSDPHWESMLNATTRRMLSHSSGAVRYLMHVPGNAGADVLLVGSEAFVLLDGQELTPRWTPKAAHVLRKPIFGRYKPDTLAVAVENGTGTDRQILFLDLGTGAVLCSLALPSLPGGPLSASLPTADHRSAFFFWGLHELGSTSETETGEARHSLYMFHPTLPRVLLELANVSTHIVAFDAVLFEPSRHAAYILLTGPADSEAPGLVSVIKHKVRDLVPSSRVVRLGEGGPDSDQAIRDRFSRLRYQSEA [ITFG3] | 57.6 | 57.1 | 0.0404 | 0.275
4 | MLRRVTVAAVCATRRKLCEAGRELAALWGIETRGRCEDSAAARPFPILAMPGRNKAKSTCSCPDLQPNGQDLGENSRVARLGADESEEEGRRGSLSNAGDPEIVKSPSDPKQYRYIKLQNGLQALLISDLSNMEGKTGNTTDDEEEEEVEEEEEDDDEDSGAEIEDDDEEGFDDEDEFDDEHDDDLDTEDNELEELEERAEARKKTTEKQSAAALCVGVGSFADPDDLPGLAHFLEHMVFMGSLKYPDENGFDAFLKKHGGSDNASTDCERTVFQFDVQRKYFKEALDRWAQFFIHPLMIRDAIDREVEAVDSEYQLARPSDANRKEMLFGSLARPGHPMGKFFWGNAETLKHEPRKNNIDTHARLREFWMRYYSSHYMTLVVQSKETLDTLEKWVTEIFSQIPNNGLPRPNFGHLTDPFDTPAFNKLYRVVPIRKIHALTITWALPPQQQHYRVKPLHYISWLVGHEGKGSILSFLRKKCWALALFGGNGETGFEQNSTYSVFSISITLTDEGYEHFYEVAYTVFQYLKMLQKLGPEKRIFEEIRKIEDNEFHYQEQTDPVEYVENMCENMQLYPLQDILTGDQLLFEYKPEVIGEALNQLVPQKANLVLLSGANEGKCDLKEKWFGTQYSIEDIENSWAELWNSNFELNPDLHLPAENKYIATDFTLKAFDCPETEYPVKIVNTPQGCLWYKKDNKFKIPKAYIRFHLISPLIQKSAANVVLFDIFVNILTHNLAEPAYEADVAQLEYKLVAGEHGLIIRVKGFNHKLPLLFQLIIDYLAEFNSTPAVFTMITEQLKKTYFNILIKPETLAKDVRLLILEYARWSMIDKYQALMDGLSLESLLSFVKEFKSQLFVEGLVQGNVTSTESMDFLKYVVDKLNFKPLEQEMPVQFQVVELPSGHHLCKVKALNKGDANSEVTVYYQSGTRSLREYTLMELLVMHMEEPCFDFLRTKQTLGYHVYPTCRNTSGILGFSVTVGTQATKYNSEVVDKKIEEFLSSFEEKIENLTEEAFNTQVTALIKLKECEDTHLGEEVDRNWNEVVTQQYLFDRLAHEIEALKSFSKSDLVNWFKAHRGPGSKMLSVHVVGYGKYELEEDGTPSSEDSNSSCEVMQLTYLPTSPLLADCIIPITDIRAFTTTLNLLPYHKIVK [NRD1] | 50.5 | 50.9 | -0.188 | 0.116
5 | MMFRDQVGILAGWFKGWNECEQTVALLSLLKRVTRTQARFLQLCLEHSLADCNDIHLLESEANSAAIVSQWQQESKEKVVSLLLSHLPLLQPGNTEAKSEYMRLLQKVLAYSIESNAFIEESRQLLSYALIHPATTLEDRNALALWLSHLEERLASGFRSRPEPSYHSRQGSDEWGGPAELGPGEAGPGWQDKPPRENGHVPFHPSSSVPPAINSIGSNANTGLPCQIHPSPLKRSMSLIPTSPQVPGEWPSPEELGARAAFTTPDHAPLSPQSSVASSGSEQTEEQGSSRNTFQEDGSGMKDVPSWLKSLRLHKYAALFSQMSYEEMMTLTEQHLESQNVTKGARHKIALSIQKLRERQSVLKSLEKDVLEGGNLRNALQELQQIIITPIKAYSVLQATVAAATTTPTAKDGAPGEPPLPGAEPPLAHPGTDKGTEAKDPPAVENYPPPPAPAPTDGSEPAPAPVADGDIPSQFTRVMGKVCTQLLVSRPDEENITSYLQLIEKCLTHEAFTETQKKRLLSWKQQVLKLLRTFPRKAALEMQNYRQQKGWAFGSNSLPIAGSVGMGVARRTQRQFPMPPRALPPGRMGLLSPSGIGGVSPRHALTSPSLGGQGRQNLWFANPGGSNSMPSQSRSSVQRTHSLPVHSSPQAILMFPPDCPVPGPDLEINPTLESLCLSMTEHALGDGTDKTSTI [SAMD4B] | 50.8 | 51.4 | -0.0818 | 0.549
6 | MMKFKPNQTRTYDREGFKKRAACLCFRSEQEDEVLLVSSSRYPDQWIVPGGGMEPEEEPGGAAVREVYEEAGVKGKLGRLLGIFENQDRKHRTYVYVLTVTEILEDWEDSVNIGRKREWFKVEDAIKVLQCHKPVHAEYLEKLKLGCSPANGNSTVPSLPDNNALFVTAAQTSGLPSSVR [NUDT4] | – | 49.3 | -0.0227 | 0.505
7 | MMSIKAFTLVSAVERELLMGDKERVNIECVECCGRDLYVGTNDCFVYHFLLEERPVPAGPATFTATKQLQRHLGFKKPVNELRAASALNRLLVLCDNSISLVNMLNLEPVPSGARIKGAATFALNENPVSGDPFCVEVCIISVKRRTIQMFLVYEDRVQIVKEVSTAEQPLAVAVDGHFLCLALTTQYIIHNYSTGVSQDLFPYCSEERPPIVKRIGRQEFLLAGPGGLGMFATVAGISQRAPVHWSENVIGAAVSFPYVIALDDEFITVHSMLDQQQKQTLPFKEGHILQDFEGRVIVATSKGVYILVPLPLEKQIQDLLASRRVEEALVLAKGARRNIPKEKFQVMYRRILQQAGFIQFAQLQFLEAKELFRSGQLDVRELISLYPFLLPTSSSFTRSHPPLHEYADLNQLTQGDQEKMAKCKRFLMSYLNEVRSTEVANGYKEDIDTALLKLYAEADHDSLLDLLVTENFCLLTDSAAWLEKHKKYFALGLLYHYNNQDAAAVQLWVNIVNGDVQDSTRSDLYEYIVDFLTYCLDEELVWAYADWVLQKSEEVGVQVFTKRPLDEQQKNSFNPDDIINCLKKYPKALVKYLEHLVIDKRLQKEEYHTHLAVLYLEEVLLQRASASGKGAEATETQAKLRRLLQKSDLYRVHFLLERLQGAGLPMESAILHGKLGEHEKALHILVHELQDFAAAEDYCLWCSEGRDPPHRQQLFHTLLAIYLHAGPTAHELAVAAVDLLNRHATEFDAAQVLQMLPDTWSVQLLCPFLMGAMRDSIHARRTMQVALGLARSENLIYTYDKMKLKGSSIQLSDKKLCQICQNPFCEPVFVRYPNGGLVHTHCAASRHTNPSSSSPGTRT [TGFBRAP1] | – | 51.1 | -0.0966 | -0.0452
8 | MNNLNDPPNWNIRPNSRADGGDGSRWNYALLVPMLGLAAFRWIWSRESQKEVEKEREAYRRRTAAFQQDLEAKYHAMISENRRAVAQLSLELEKEQNRTASYREALISQGRKLVEEKKLLEQERAQVMQEKRQVQPLRSAYLSCLQREENWQRRARLLLKEFEAVLTERQNIYCSLFLPRSKRLEIEKSLLVRASVDPVAADLEMAAGLTDIFQHDTYCGDVWNTNKRQNGRLMWLYLKYWELVVELKKFKRVEEAILEK [CCDC127] | 54 | 52.5 | 0.115 | 0.0789
9 | MNRVNDPLIFIRDIKPGLKNLNVVFIVLEIGRVTKTKDGHEVRSCKVADKTGSITISVWDEIGGLIQPGDIIRLTRGYASMWKGCLTLYTGRGGELQKIGEFCMVYSEVPNFSEPNPDYRGQQNKGAQSEQKNNSMNSNMGTGTFGPVGNGVHTGPESREHQFSHAGRSNGRGLINPQLQGTASNQTVMTTISNGRDPRRAFKR [NABP1] | – | 50.7 | -0.222 | 0.0163
